{
  "source": "FireProtDB (doi:10.1021/bi00231a002)",
  "proteins": {"B1": {"name": "Cytochrome c2 wild type, P00094 (protein)", "chain": "MKISLTAATVAALVLAAPAFAGDAAKGEKEFNKCKTCHSIIAPDGTEIVKGAKTGPNLYGVVGRTAGTYPEFKYKDSIVALGASGFAWTEEDIATYVKDPGAFLKEKLDDKKAKTGMAFKLAKGGEDVAAYLASVVK"}},
  "conditions": "Rhodobacter capsulatus (strain ATCC BAA-309 / NBRC 16581 / SB1003); pH 7.5; 20 °C; GdnHCl; CD; Tris-HCl 20 mM; NaCl 40 mM; whole UniProt chain shown",
  "data": [
    {"protein": "B1", "values": [
      {"measurement": "denaturant m value", "value": 1.65, "unit": "kcal/mol/M"},
      {"measurement": "denaturant midpoint (higher = more stable)", "value": 4.51, "unit": "M"},
      {"measurement": "unfolding free energy", "value": 7.45, "unit": "kcal/mol"}
    ]}
  ]
}
